Data from PMC11279923, “Assessment of Radiolabelled Derivatives of R954 for Detection of Bradykinin B1 Receptor in Cancer Cells: Studies on Glioblastoma Xenografts in Mice” (Pharmaceuticals, 2024).
Like-named read-outs stand apart in the source and are kept apart here. Blank lines part the entries; values can stand above or below the molecule they belong to. Non-standard residues stand in square brackets, D forms with d. Residues, ends and D or L forms follow the SMILES beside them. *: point of attachment. DOTA = O=C(O)CN1CCN(CC(=O)O)CCN(CC(=O)*)CCN(CC(=O)O)CC1; Oic = O=C(O)[C@@H]1C[C@@H]2CCCC[C@@H]2N1; d2Nal = N[C@H](Cc1ccc2ccccc2c1)C(=O)O; αMeF = C[C@](N)(Cc1ccccc1)C(=O)O; Orn = NCCC[C@H](N)C(=O)O; Ahx = NCCCCCC(=O)O

Tests used:
B1R [1] = target: T1, B1R (Homo sapiens, UniProt P46663); assay: Saturation binding assay with Scatchard analysis on U87MG cells; set-up: could detect B1R endogenously expressed in glioblastoma cells; host or cells: U87MG human glioblastoma cells (intact, adherent); settings: tracer 0.7-358 nM, NSB with 100 µM R954, Scatchard analysis, mean of three independent experiments
T1 sequence (P46663 1-353): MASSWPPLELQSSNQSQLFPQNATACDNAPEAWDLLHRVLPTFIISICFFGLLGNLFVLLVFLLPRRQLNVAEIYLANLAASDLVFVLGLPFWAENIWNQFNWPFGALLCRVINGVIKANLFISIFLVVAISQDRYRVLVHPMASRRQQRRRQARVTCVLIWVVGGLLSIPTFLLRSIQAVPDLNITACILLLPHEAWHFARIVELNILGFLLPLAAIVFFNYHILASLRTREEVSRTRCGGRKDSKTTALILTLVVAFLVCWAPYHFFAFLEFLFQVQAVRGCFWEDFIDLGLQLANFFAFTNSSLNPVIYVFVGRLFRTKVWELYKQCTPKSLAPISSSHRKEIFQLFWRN
Procedure: The affinity of [^111In]In-DOTA-Ahx-R954 for B1R in the cells was measured using an R954 saturation assay with increasing concentrations of [^111In]In-DOTA-Ahx-R954 (range 0.7–358 nM). The Scatchard plot was used to estimate the Kd and Bmax values. The parameters were presented as means of three independent experiments (one assay performed on type I collagen-coated plates and two assays performed on Poly-D-Lysine plates).

U87MG tumour xenografts = test system: U87MG tumour xenografts; set-up: species or system BALBc nu/nu male mice; settings: mouse, in vivo
Procedure: Five-week-old BALBc nu/nu male mice (Japan SLC, Inc., Hamamatsu, Japan) were xenografted by subcutaneous injection of U87MG cells (5 × 10^6 cells per 50 μL of culture medium) into their right hind legs. The mice were subjected to biodistribution studies when the tumour weight reached 0.1−0.5 g.
Mice bearing U87MG tumour xenografts were injected via the tail vein with 100 μL of [^111In]In-DOTA-Ahx-R954 (30–74 kBq; 0.01–0.02 nmol) and were sacrificed and dissected 1, 4, and 24 h after administration. […] R954 was co-injected with [^111In]In-DOTA-Ahx-R954, and mice were sacrificed and dissected 1 and 4 h after administration. The tissues of interest were removed and weighed, and radioactivity was determined using an auto-well gamma counter. The results are presented as a percentage of the injected dose per gram (% dose/g).

B1R [2] = target: T1, B1R; set-up: could detect B1R endogenously expressed in glioblastoma cells; host or cells: U87MG human glioblastoma cells (intact, adherent); settings: lung fibroblast cell membrane; read-out: binding affinity (Kd); cited from earlier work
From the text: (§1) Our study has several potential limitations. […] Although we could not evaluate the diagnostic utility of [^111In]In-DOTA-Ahx-R954 by comparing it with previously reported probes for SPECT and PET using parameters obtained under the same experimental conditions, improving the ...

B1R [3] = target: T1, B1R; set-up: could detect B1R endogenously expressed in glioblastoma cells; settings: B1R+ HEK293T cell membrane; read-out: binding affinity (Kd); cited from earlier work
From the text: as §1

U87MG cells = assay: Blocking of [^111In]In-DOTA-Ahx-R954 cell accumulation by B1R antagonist or agonist; format: cell-based, human; settings: 100 µM blocker, 120 min, n = 4
Procedure: (§2) Human glioblastoma cell lines U87MG and U251MG were obtained from the American Type Culture Collection (Manassas, VA, USA) and kept under standard cell culture conditions (5% CO2, 37 °C). Cells were cultured in Eagle’s minimum essential medium (E-MEM; FUJIFILM Wako Pure Chemical Co.) supplemented with 10% v/v foetal bovine serum (BioWest S.A.S, Nuaillé, France), 1% v/v nonessential amino acids (FUJIFILM Wako Pure Chemical Co.), 1 mM sodium pyruvate (FUJIFILM Wako Pure Chemical Co.), and 1% v/v penicillin–streptomycin (10,000 unit-10 mg/mL; FUJIFILM Wako Pure Chemical Co.). Cells were seeded at a density of 1 × 10^5 cells/well in Poly-D-Lysine 24-well plates (Corning Inc., Corning, NY, USA). After 24 h, the medium was removed, and the cells were washed with 500 μL of 0.01 M PBS (+) (FUJIFILM Wako Pure Chemical Co.) and incubated at 37 °C in 500 μL of Hanks Balanced Salt Solution (+) (HBSS (+); FUJIFILM Wako Pure Chemical Co.) for 10 min. […] The value at 0 min was determined by an assay performed using the same protocol as that used immediately after removing the incubation solution. Cell lysate radioactivity was measured using an auto-well gamma counter (2470 WIZARD^2; PerkinElmer, Inc., Shelton, CT, USA), and the protein content of the lysates was measured using a Pierce™ BCA protein assay kit (Thermo Fisher Scientific, Inc., Waltham, MA, USA). […]

U251MG cells = assay: as above; format: cell-based, human; settings: 100 µM blocker, 120 min, n = 4
Procedure: as §2

B1R [4] = settings: B1R agonist; cited from earlier work

Kd (B1R [1]): 54.1 ± 18.9 nM
Molecule: CC[C@H](C)[C@H](NC(=O)[C@@H](Cc1ccc2ccccc2c1)NC(=O)[C@H](CO)NC(=O)[C@](C)(Cc1ccccc1)NC(=O)CNC(=O)[C@@H]1CCCN1C(=O)[C@@H]1C[C@@H]2CCCC[C@@H]2N1C(=O)[C@H](CCCNC(=N)N)NC(=O)[C@H](CCCN)NC(=O)CCCCCNC(=O)CN1CCN(CC(=O)O)CCN(CC(=O)O)CCN(CC(=O)O)CC1)C(=O)O [[^111In]In-DOTA-Ahx-R954, metal not drawn] ({DOTA-Ahx}-[Orn]R[Oic]PG[αMeF]S[d2Nal]I-OH)
blood-brain barrier penetration (U87MG tumour xenografts): poor
reduction of radioactivity level in plasma compared to 1 h (U87MG tumour xenografts): 98%
reduction of radioactivity level in tumour compared to 1 h (U87MG tumour xenografts): 48%

Molecule: [^3H](des-Arg^10, Leu^9)-kallidin
Kd (B1R [2]): 0.33 ± 0.07 nM
Kd (B1R [3]): 1.9 ± 0.5 nM

Molecule: [des-Arg^10]-kallidin
change in accumulated radioactivity in blocking study (U87MG cells): significant decrease
change in accumulated radioactivity in blocking study (U251MG cells): not in U251MG cells
pEC50 (B1R [4]): 9.7
